Results as given in EP4499697A1 (dated 2025).

Key:
human FRα on cells [1] = target: T1, human FRα on cells (human, UniProt P15328 25-234); assay: cell-based or functional assay
human FRα on cells [2] = target: T1, human FRα on cells; assay: flow cytometry on IGROV-1 cells (endogenous FRα), apparent Kd

T1 sequence (P15328 25-234): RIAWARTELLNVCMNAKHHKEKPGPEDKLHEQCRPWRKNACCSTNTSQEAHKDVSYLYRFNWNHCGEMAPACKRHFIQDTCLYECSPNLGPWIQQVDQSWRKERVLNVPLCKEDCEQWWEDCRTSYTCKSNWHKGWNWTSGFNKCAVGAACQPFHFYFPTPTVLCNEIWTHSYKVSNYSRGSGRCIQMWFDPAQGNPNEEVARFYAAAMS

internalized fluorescence relative to v30384, 25 nM, 5-hour incubation, IGROV-1 cells (human FRα on cells [1]): 0.5 fold
Kd (human FRα on cells [2]): 0.69 nM
B1: mirvetuximab (v17716) (antibody, V domains shown)
VH: QVQLVQSGAEVVKPGASVKISCKASGYTFTGYFMNWVKQSPGQSLEWIGRIHPYDGDTFYNQKFQGKATLTVDKSSNTAHMELLSLTSEDFAVYYCTRYDGSRAMDYWGQGTTVTVSS
VL: DIVLTQSPLSLAVSLGQPAIISCKASQSVSFAGTSLMHWYHQKPGQQPRLLIYRASNLEAGVPDRFSGSGSKTDFTLTISPVEAEDAATYYCQQSREYPYTFGGGTKLEIK
